{
  "source": "patent US10532083B2",
  "about": "“Methods for inducing differentiation or conversion of white adipocytes and/or preadipocytes to brown adipocites using FGF8” (Technische Universität München, priority 2014, dated 2020)",
  "key": {"[1]": {"system": "subcutaneous, inguinal white adipocytes", "experiment": "Ucp1 / brown adipocyte marker mRNA (qPCR) in immortalized inguinal white adipocytes treated with FGFs", "assay_type": "cell-based, murine", "method": "(§1) Screening paracrine FGFs for a browning potential. A, B—Screening of all paracrine FGFs in immortalized white adipocytes. Subcutaneous, inguinal and visceral, epididymal white adipocytes were grown to confluence in Dulbecco's modified Eagle's medium with 4.5 g/l glucose, supplemented with 20 nmol/l insulin, 1 nmol/l triiodothyronine, 20% fetal bovine serum, and penicillin/streptomycin. Upon reaching confluence, differentiation was induced with 500 mmol/l isobutylmethylxanthine, 250 mmol/l indomethacine, and 2 mg/ml dexamethasone for 24 hours. Subsequently, members of the paracrine FGF protein family were added to the medium for the following six days. The medium and the FGF indicated were changed every 48 hours. Untreated cells served as a negative control. At the end of the differentiation process total RNA was isolated using TRIzol reagents, RNA quality and concentration was measured by photometric analysis, and 5 μg of total RNA was reverse-transcribed to cDNA. Finally, quantitative analysis of UCP-1 mRNA expression was performed. A bar graph analysis including the SEM of 3 to 6 independent experiments is shown. […] B—Four different splicing forms of the Fgf8 gene were compared by quantifying Ucp1 mRNA expression in fully differentiated white adipocytes. UCP-1 mRNA abundance is shown in percent of the FGF8b value. Fgf8b and Fgf8f were able to increase expression in epididymal adipocytes. C—Illustration depicting the different exon usage that characterizes the FGF8 spliceforms a, b, e, and f.\n(§2) Dose dependency of Ffg8b action. A, B—Subcutaneous, inguinal and visceral, epididymal white adipocytes were grown to confluence in Dulbecco's modified Eagle's medium with 4.5 g/l glucose, supplemented with 20 nmol/l insulin, 1 nmol/l triiodothyronine, 20% fetal bovine serum, and penicillin/streptomycin. Upon reaching confluence, differentiation was induced with 500 mmol/l isobutylmethylxanthine, 250 mmol/l indomethacine, and 2 mg/ml dexamethasone for 24 hours. Subsequently, FGF8b in five indicated concentrations were added to the medium for the following six days. The medium and the FGF8b were changed every 48 hours. Untreated cells served as a negative control. At the end of the differentiation process total RNA was isolated using TRIzol reagents, RNA quality and concentration was measured by photometric analysis, and 5 μg of total RNA was reverse-transcribed to cDNA. Finally, quantitative analysis of UCP-1 mRNA expression was performed. FGF8b induces Ucp1 mRNA abundance in inguinal and epididymal adipocytes. Epididymal fat cells were more dose dependently responsive to Fgf8b treatment as compared to inguinal cells. The latter were responsive to FGF8b treatment above the threshold indicated. B—The absolute increase of several genes typical for brown fat cells.\n(§3) Treatment timecourse experiment. A, B—Subcutaneous, inguinal and visceral, epididymal white adipocytes were grown to confluence (prolif. denotes proliferation period) in Dulbecco's modified Eagle's medium with 4.5 g/l glucose, supplemented with 20 nmol/l insulin, 1 nmol/l triiodothyronine, 20% fetal bovine serum, and penicillin/streptomycin. Upon reaching confluence, differentiation was induced with 500 mmol/l isobutylmethylxanthine, 250 mmol/l indomethacine, and 2 mg/ml dexamethasone for 24 hours (induction). Subsequently, the cells were cultured for another six days (differentiation). At the end of the differentiation process total RNA was isolated using TRIzol reagents, RNA quality and concentration was measured by photometric analysis, and 5 μg of total RNA was reverse-transcribed to cDNA. Finally, quantitative analysis of UCP-1 mRNA expression was performed. Untreated cells served as a negative control. A bar graph analysis including the SEM of 5 independent experiments is shown. A—Epididymal fat cells were treated with FGF8b during different time windows as given by black squares indicating one day of treatment each. […]"}, "[2]": {"system": "visceral, epididymal white adipocytes", "experiment": "Ucp1 / brown adipocyte marker mRNA (qPCR) in immortalized epididymal white adipocytes treated with FGFs", "assay_type": "cell-based, murine", "conditions": "for Induction of Ucp1 mRNA expression (browning potential), screening of paracrine FGFs and FGF8 spliceforms: epididymal adipocytes, six days of differentiation, FGF8a, b, e, f 25.0 ng/ml, FGF17 10.0 ng/ml", "method": "as §1, §2, §3"}},
  "data": [
    {"molecule": "FGF8b: murine recombinant paracrine fibroblast growth factor 8, major spliceform b (R&D Systems); amino acid sequence identical to human, SEQ ID NO:16/20 (protein, human FGF8b) MGSPRSALSCLLLHLLVLCLQAQVTVQSSPNFTQHVREQSLVTDQLSRRLIRTYQLYSRTSGKHVQVLANKRINAMAEDGDPFAKLIVETDTFGSRVRVRGAETGLYICMNKKGKLIAKSNGKGKDCVFTEIVLENNYTALQNAKYEGWYMAFTRKGRPRKGSKTRQHQREVHFMKRLPRGHHTTEQSLRFEFLNYPPFTRSLRGSQRTWAPEPR", "values": [
      {"measurement": "Ucp1 mRNA abundance, induction", "setting": "[1]; fully differentiated inguinal cell line, treatment after induction for entire differentiation period of 6 days, screening concentration 25.0 ng/ml, untreated cells as control", "value": 2.1, "unit": "fold"},
      {"measurement": "Induction of Ucp1 mRNA expression (browning potential), screening of paracrine FGFs and FGF8 spliceforms", "setting": "[1]; inguinal adipocytes, six days of differentiation, FGF8a, b, e, f 25.0 ng/ml, FGF17 10.0 ng/ml", "value": "only isoform with browning potential"},
      {"measurement": "Cidea mRNA abundance", "setting": "[1]; inguinal adipocytes, treatment during differentiation, smaller effect size than in epididymal", "value": "increased"},
      {"measurement": "Ucp1 mRNA abundance, dose dependency", "setting": "[1]; inguinal cells, different concentrations during entire differentiation phase of 6 days", "value": "only the highest dose increased Ucp1 expression"},
      {"measurement": "Most effective concentration for Ucp1 induction", "setting": "[1]; inguinal cells, highest concentration tested, 6 days of differentiation", "value": 125, "unit": "ng/mL"},
      {"measurement": "Final Ucp1 mRNA abundance after full differentiation (responsiveness)", "setting": "[1]; inguinal cells, treatment during different days of proliferation, induction and/or differentiation", "value": "only responsive to FGF8b treatment in their fully differentiated state"},
      {"measurement": "Pgc1a mRNA", "setting": "[2]; continuous treatment during differentiation, fully differentiated adipocytes (FIG. 2B)", "value": "strongly downregulated"},
      {"measurement": "Induction of Ucp1 mRNA expression (browning potential), screening of paracrine FGFs and FGF8 spliceforms", "setting": "[2]", "value": "increased expression of Ucp1 mRNA expression"},
      {"measurement": "Induction of Ucp1 mRNA expression (browning potential), screening of paracrine FGFs and FGF8 spliceforms", "setting": "[2]; listed as Fgf8b", "value": "effective"},
      {"measurement": "Ucp1 mRNA abundance, dose dependency", "setting": "[2]; epididymal cells, different concentrations during entire differentiation phase of 6 days", "value": "dose dependent manner"},
      {"measurement": "Most effective concentration for Ucp1 induction", "setting": "[2]; epididymal cells, highest concentration tested, 6 days of differentiation", "value": 125, "unit": "ng/mL"},
      {"measurement": "Final Ucp1 mRNA abundance after full differentiation", "setting": "[2]; epididymal cells, treatment during the induction period", "value": "inhibited Ucp1 induction"},
      {"measurement": "Ucp1 mRNA abundance, induction", "setting": "[2]; fully differentiated epididymal cell line, treatment after induction for entire differentiation period of 6 days, screening concentration 25.0 ng/ml, untreated cells as control", "value": 27.4, "unit": "fold"}
    ]}
  ]
}
